Ends that are not written are not given here.

For the assay, the target named is T1, PDF receptor (PDFR), endogenous in the insulin producing cells (Drosophila melanogaster (endogenous in fly brain)) (UniProt Q9W4Y2).
T1 sequence: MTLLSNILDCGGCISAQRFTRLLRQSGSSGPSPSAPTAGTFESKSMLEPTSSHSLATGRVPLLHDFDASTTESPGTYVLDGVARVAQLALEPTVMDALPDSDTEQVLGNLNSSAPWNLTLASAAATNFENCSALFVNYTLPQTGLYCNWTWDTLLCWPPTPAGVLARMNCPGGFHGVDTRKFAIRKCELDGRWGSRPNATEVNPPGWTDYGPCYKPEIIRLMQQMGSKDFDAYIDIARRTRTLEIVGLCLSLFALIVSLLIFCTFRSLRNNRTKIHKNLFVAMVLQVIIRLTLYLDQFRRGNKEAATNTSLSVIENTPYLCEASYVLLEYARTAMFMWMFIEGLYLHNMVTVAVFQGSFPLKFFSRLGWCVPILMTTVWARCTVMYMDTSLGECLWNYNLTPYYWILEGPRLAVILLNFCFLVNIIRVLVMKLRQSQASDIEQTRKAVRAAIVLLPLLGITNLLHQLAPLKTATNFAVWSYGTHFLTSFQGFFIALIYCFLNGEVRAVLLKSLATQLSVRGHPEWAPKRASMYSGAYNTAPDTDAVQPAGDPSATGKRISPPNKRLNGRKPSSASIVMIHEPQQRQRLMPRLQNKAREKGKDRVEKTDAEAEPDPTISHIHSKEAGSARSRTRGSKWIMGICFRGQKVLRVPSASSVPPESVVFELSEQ

Regarding NSELINSLLSLPKNMNDA-NH2 [Pigment Dispersing Factor (PDF), synthetic peptide], the cAMP FRET signal (Epac1camps) in the IPCs of dissected brains, 10 uM PDF bath-applied, 100-1000 s, against the HL3 negative control; no increase in the PDFR-null han mutant stood at 10%.

(Values after article PMC6592559.)
